Results: patent US20170189513A1

Molecular target: HLA-A*24 (human)
Test: UV-ligand exchange, b2m ELISA

Binder	peptide exchange yield [%]
RYAEEVGIF [… (SEQ ID No 199)]	50 to 75
YYGPSLFLL [… (SEQ ID No 200)]	50 to 75
TYELRYFQI [… (SEQ ID No 204)]	> 75
AYVVFVSTL [… (SEQ ID No 207)]	20 to 49
TYKDEGNDYF [… (SEQ ID No 209)]	50 to 75
NYYEVHKELF [… (SEQ ID No 270)]	50 to 75
HYPPVQVLF [… (SEQ ID No 285)]	50 to 75
LYITEPKTI [… (SEQ ID No 287)]	50 to 75

Other lines, results leading:

peptide exchange yield [%]	Binder
50 to 75	IYATEAHVF [… (SEQ ID No 201)]
> 75	VYWDSAGAAHF [… (SEQ ID No 202)]
50 to 75	YYKSTSSAF [… (SEQ ID No 218)]
50 to 75	TFSVSSHLF [… (SEQ ID No 222)]
50 to 75	QYLGQIQHI [… (SEQ ID No 268)]
50 to 75	YFIDSTNLKTHF [… (SEQ ID No 269)]
> 75	VYQGHTALL [… (SEQ ID No 277)]
20 to 49	PYRLIFEKF [… (SEQ ID No 281)]
